Measurements from patent US20210347908A1 (ELPISCIENCE SUZHOU BIOPHARMA, published 2021).
Residue numbers refer to the chain shown, from its start.

T1: 6×His tagged C57BL/6 mouse SIRPα ECD recombinant protein (mouse (C57BL/6), UniProt P97797 32-373)
T1 construct: extracellular domain; bought; also called mSIRPα (C57BL/6); mouse SIRPα (C57BL/6) ECD
T1 sequence: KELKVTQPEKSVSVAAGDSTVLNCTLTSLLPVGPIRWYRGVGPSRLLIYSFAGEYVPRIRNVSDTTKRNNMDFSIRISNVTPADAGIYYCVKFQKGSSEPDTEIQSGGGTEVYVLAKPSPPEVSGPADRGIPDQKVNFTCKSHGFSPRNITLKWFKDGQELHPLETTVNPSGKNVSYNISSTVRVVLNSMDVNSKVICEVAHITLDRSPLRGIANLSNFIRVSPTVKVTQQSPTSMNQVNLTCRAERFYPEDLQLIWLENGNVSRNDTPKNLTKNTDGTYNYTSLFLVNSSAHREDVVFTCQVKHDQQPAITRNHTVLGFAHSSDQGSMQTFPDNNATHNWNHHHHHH

B1: Antibody 022 (hybridoma antibody) (antibody, V domains shown)
VH: QIQLVQSGPELKKPGETVKISCKASGYTFTDYAMHWVKQAPGKGLKWMGWKNTETGESTYAEDFKGRFAFFLETSASTAYLQINNVKNEDTATYFCARGGYGSNYVMDYWGQGTSVIVSS
VL: DIQMTQSSSSFSVSLGDRVTITCKASEDIYNRLAWYQQKPGNAPRLLISGATSLETGVPSRFSGSGSGKDYTLSITSLQTEDVATYYCQQYWNSPRTFGGGTKLEIK
notes: mouse hybridoma antibody
B2: Antibody 050 (hybridoma antibody) (antibody, V domains shown)
VH: QIQLVQSGPELKKPGETVKISCKASGYTFTHYSMHWVKQAPGKGLKWMGWINTETAEPTYVDDFKGRFAFSLEASASTAFFQINNLKNEDTATYFCARGGLRQGDYWGQGTTLTVSS
VL: QIVLTQSPPIMSASPGEKVTLTCSATSSVSASYLYWFQQKPGSSPKLWIYSTSNLASGVPARFSGSGSGTSYSLTISNMEPADAASYFCHQWSSYPYTFGGGTKLEIK
notes: mouse hybridoma antibody
B3: Antibody 074 (hybridoma antibody) (antibody, V domains shown)
VH: QVQLQQPRAELVKPGASVMLSCKASGYTFSSYWIHWVRQGPGQGLEWIGLIHPNSGNTDCSETFKNKATLTVDTSSSTAYMQLSSLASEDSAVYYCARDGASYDWFVHWGQGTLVTVSA
VL: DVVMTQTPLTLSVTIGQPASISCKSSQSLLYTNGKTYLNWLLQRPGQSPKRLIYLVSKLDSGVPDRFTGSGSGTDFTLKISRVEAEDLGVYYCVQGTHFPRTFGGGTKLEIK
notes: mouse hybridoma antibody
B4: chimeric antibody 022c (antibody, V domains shown)
VH: B1 VH
VL: B1 VL
B5: chimeric antibody 001c (antibody, V domains shown)
VH: EVKLEESGGGLVQPGGSMKLSCVASGFTFRNYWMNWVRQSPERGLEWIAEISLKSNTYATHYAESVKGRFAISRDGSKSSFYLQMNDLRAEDTGIYYCTTFTKVVADWHLDVWGAGTTVTVSS
VL: DVLMTQTPLSLPVSLGDQASISCRSSQNIVHSNGNTYLEWYLQKPGQSPKLLIYKVSNRFSGVPDRFSGSGSGTDFTLRISRVEAEDLGVYYCFQGSHVPFTFGSGTKLEIK
B6: chimeric antibody 002c (antibody, V domains shown)
VH: B5 VH with K19I, S52T, G76D, A90P
VL: B5 VL with V56I, K112Q
B7: chimeric antibody 032c (antibody, V domains shown)
VH: B5 VH with K3R, A24V, S52T, G76D, A90P
VL: B5 VL with S14N
B8: chimeric antibody 050c (antibody, V domains shown)
VH: B2 VH
VL: B2 VL
B9: chimeric antibody 074c (antibody, V domains shown)
VH: B3 VH
VL: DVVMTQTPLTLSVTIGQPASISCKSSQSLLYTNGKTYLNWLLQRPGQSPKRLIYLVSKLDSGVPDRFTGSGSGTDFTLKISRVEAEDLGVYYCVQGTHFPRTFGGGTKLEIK
B10: chimeric antibody 035c (antibody, V domains shown)
VH: QIQLVQSGPELRKPGETVKISCKASGYSFTNYAMNWVKQAPGKVLKWMGFINTYTGEPTYADDFKGRFAFSLETSASTAYLQINNLKNEDTATYFCTRTRGYYDFDGGAFDYWGQGTSLTVSS
VL: DIVMTQSQKFMSTSIGDRVSVTCKASQNVGTHLAWYQQKPGQSPKALIFSASYRYIGVPDRFTGSGSGTDFTLTITNVQSEDLAEYFCQQYNTYPLTFGAGTKLELK
B11: chimeric antibody 055c (antibody, V domains shown)
VH: EVKLVESEGGLVQPGDSMKLSCTASGFTFSDYFMTWIRQVPEKGLEWIANVNYDGRSTYYLDSLKSRFIISRDNANNILYLQMSSLKSEDTATYYCAREGSQTPLYAVDYWGQGTSVTVSS
VL: DIVMTQSQKFMSTTVGDRVNITCKASQNVGTAVAWYQQKPGQSPKLLIYLASNRYTGVPDRFTGSGSGTDFTLTVSDMRSEDLADYFCQQYSIYPFTFGSGTKLEIK
B12: chimeric antibody 060c (antibody, V domains shown)
VH: QVQLKESGPGLVAPSESLSITCTVSGFSLTNYDISWIRQSPGKGLEWLGVIWTGGDTNFNSAFMSRLSISKDKSKSQVFLKLNSLQTDDTAIYYCVRVQYFGGSYGPMDYWGQGISVTVSS
VL: DIQMTQASSYLSVSLGGRVTITCEASDHINDWLAWYQQTPGNAPRLLISGATSLETGVPSRFSGSGSGKDYTLSITSLQTEDIATYYCQQYWNTPLTFGAGTRLELK

What follows are binders tested against T2, Fc tagged human SIRPα v1 ECD recombinant protein (human, UniProt P78324 31-370) (assay: ELISA).
T2 construct: range 1-370; cloned range M1-R370 includes the signal peptide; also called hSIRPα V1; not shown: human IgG Fc region (hFc) of the pCPC vector
T2 sequence (P78324 31-370 limits assumed): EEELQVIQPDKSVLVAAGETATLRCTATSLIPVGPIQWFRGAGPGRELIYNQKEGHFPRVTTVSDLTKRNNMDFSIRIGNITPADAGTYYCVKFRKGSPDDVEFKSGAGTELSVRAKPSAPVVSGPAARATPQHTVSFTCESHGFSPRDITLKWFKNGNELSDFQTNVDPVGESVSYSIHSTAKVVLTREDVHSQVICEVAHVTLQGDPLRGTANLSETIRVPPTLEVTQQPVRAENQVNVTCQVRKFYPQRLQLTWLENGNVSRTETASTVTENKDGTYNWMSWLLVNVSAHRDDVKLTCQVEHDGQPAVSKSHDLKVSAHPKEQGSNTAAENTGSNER
Protocol: (§1) Binding specificity of the purified hybridoma antibodies against SIRP family members was detected by ELISA assay using recombinant proteins of Fc tagged human SIRPα v1 ECD, human SIRPα v2 ECD, human SIRPβ ECD and human SIRPγ ECD. Briefly the antibodies were incubated with ELISA microplate coated antigens at 37° C. for 1 hour. After washing, horseradish peroxidase (HRP) labeled anti-mouse or anti-human IgG 2nd Ab (Sigma) was added and incubated at 37° C. for 1 hour. Then, 100 μl/well of TMB solution (Biotechnology) was added. After incubation for 15 minutes at room temperature, the reaction was stopped by the addition of 50 μl of 1N HCl. OD 450 nm was read and EC₅₀ was calculated. Other than 060 and HEFLB, all of the antibodies as tested can bind with both human SIRPα v1 and SIRPα v2. 060 and HEFLB can bind with human SIRPα v1 but not v2. Other than 055, all of the antibodies as tested can bind with human SIRPβ. In comparison with other known anti-SIRPα antibodies, only 022, 035 and 050 can bind with human SIRPγ weakly.

Row | EC50 | Binder
1 | 0.04 nM | B1
2 | 0.08 nM | B2
3 | 0.02 nM | B3

Each binder was assayed against T3, Fc tagged human SIRPα v2 ECD recombinant protein (human) (assay: ELISA).
T3 construct: range 1-369; cloned range M1-R369 includes the signal peptide; also called hSIRPα V2
Protocol: as §1

Row | EC50 | Binder
4 | 0.04 nM | B1
5 | 0.08 nM | B2
6 | 0.02 nM | B3

The binders below were run against T4, Fc tagged human SIRPβ ECD recombinant protein (human, UniProt O00241 30-371) (assay: ELISA).
T4 construct: range 1-371; cloned range includes the signal peptide; also called hSIRPβ; not shown: human IgG Fc region (hFc) of the pCPC vector
T4 sequence (O00241 30-371 limits assumed, form in doubt): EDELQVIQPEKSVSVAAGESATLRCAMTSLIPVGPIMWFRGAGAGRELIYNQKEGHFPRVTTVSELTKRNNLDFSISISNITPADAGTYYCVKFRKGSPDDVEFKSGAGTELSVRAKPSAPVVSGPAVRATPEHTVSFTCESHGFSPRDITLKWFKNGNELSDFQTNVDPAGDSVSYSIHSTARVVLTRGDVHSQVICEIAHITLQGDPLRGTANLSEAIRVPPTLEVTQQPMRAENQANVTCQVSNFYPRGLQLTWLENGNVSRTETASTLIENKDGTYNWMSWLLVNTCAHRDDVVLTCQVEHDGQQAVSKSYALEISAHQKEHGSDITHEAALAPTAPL
Protocol: as §1

Row | EC50 | Binder
7 | 0.03 nM | B1
8 | 0.11 nM | B2
9 | 0.02 nM | B3

These binders were tested against 6×His tagged human SIRPα v2 ECD recombinant protein (human) (assay: SPR (Biacore), antibody captured).
Sequence of 6×His tagged human SIRPα v2 ECD recombinant protein (human) (chain, as listed by the source): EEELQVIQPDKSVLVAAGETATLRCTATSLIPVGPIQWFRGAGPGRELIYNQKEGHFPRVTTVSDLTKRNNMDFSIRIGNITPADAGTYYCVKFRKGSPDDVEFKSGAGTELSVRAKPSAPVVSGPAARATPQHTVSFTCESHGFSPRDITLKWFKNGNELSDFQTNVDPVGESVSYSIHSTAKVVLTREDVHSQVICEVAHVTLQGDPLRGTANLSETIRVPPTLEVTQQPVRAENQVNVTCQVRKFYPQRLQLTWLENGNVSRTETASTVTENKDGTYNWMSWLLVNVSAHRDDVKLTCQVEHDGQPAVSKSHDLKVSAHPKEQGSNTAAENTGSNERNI
Protocol: (§2) Anti-SIRPα chimeric antibodies were characterized for binding affinity against human SIRPα v1, human SIRPα v2 and C57BL/6 mouse SIRPα using Biacore (GE). Briefly the antibodies to be tested were captured to CM5 chip (GE) using Human Antibody Capture Kit (GE). The antigens of 6×His tagged human SIRPα v1, human SIRPα v2 and C57BL/6 mouse SIRPα ECD recombinant proteins were serially diluted for multiple doses and injected at 30 μl/min for 180 s. Buffer flow was maintained for dissociation of 400 s. 3 M MgCl₂ was used for chip regeneration. The association and dissociation curves were fit with 1:1 binding model, and the Ka/Kd/KD values for each antibody were calculated.

Row | Kd | koff | kon | Binder
10 | 25.6 nM | 0.00144 s⁻¹ | 56100 M⁻¹ s⁻¹ | B4
11 | 20.6 nM | 0.000816 s⁻¹ | 39700 M⁻¹ s⁻¹ | B5
12 | 28.3 nM | 0.00146 s⁻¹ | 51600 M⁻¹ s⁻¹ | B6
13 | 14.7 nM | 0.000774 s⁻¹ | 52600 M⁻¹ s⁻¹ | B7
14 | 4.72 nM | 0.000529 s⁻¹ | 112000 M⁻¹ s⁻¹ | B8
15 | 25.2 nM | 0.000515 s⁻¹ | 20400 M⁻¹ s⁻¹ | B9
16 | 2.62 nM | 0.000154 s⁻¹ | 59000 M⁻¹ s⁻¹ | B10
17 | 28.5 nM | 0.00138 s⁻¹ | 48300 M⁻¹ s⁻¹ | B11

These binders were tested against T5, 6×His tagged human SIRPα v1 ECD recombinant protein (human, UniProt P78324 31-373) (assay: SPR (Biacore), antibody captured).
T5 construct: extracellular domain; bought; also called hSIRPα V1 (SPR antigen)
T5 sequence (P78324 other isoform, or with tags, fused parts or gaps): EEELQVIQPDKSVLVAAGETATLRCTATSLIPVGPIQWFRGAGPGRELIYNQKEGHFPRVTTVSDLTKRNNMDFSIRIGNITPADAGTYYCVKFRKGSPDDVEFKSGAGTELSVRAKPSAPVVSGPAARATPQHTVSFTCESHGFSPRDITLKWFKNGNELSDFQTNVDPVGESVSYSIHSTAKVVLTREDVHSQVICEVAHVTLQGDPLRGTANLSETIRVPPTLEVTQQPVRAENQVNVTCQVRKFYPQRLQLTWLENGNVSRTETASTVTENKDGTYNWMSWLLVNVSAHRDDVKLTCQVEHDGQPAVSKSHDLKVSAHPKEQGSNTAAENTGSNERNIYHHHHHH
Protocol: as §2

Row | Kd | koff | kon | Binder
18 | 5.9 nM | 0.00074 s⁻¹ | 125000 M⁻¹ s⁻¹ | B4
19 | 11.4 nM | 0.000855 s⁻¹ | 74900 M⁻¹ s⁻¹ | B5
20 | 16.1 nM | 0.00148 s⁻¹ | 92000 M⁻¹ s⁻¹ | B6
21 | 8.92 nM | 0.000834 s⁻¹ | 93500 M⁻¹ s⁻¹ | B7
22 | 3.07 nM | 0.000774 s⁻¹ | 252000 M⁻¹ s⁻¹ | B8
23 | 4.4 nM | 0.000229 s⁻¹ | 52100 M⁻¹ s⁻¹ | B9
24 | 1.49 nM | 0.000141 s⁻¹ | 94400 M⁻¹ s⁻¹ | B12
25 | 1.11 nM | 0.000203 s⁻¹ | 183000 M⁻¹ s⁻¹ | B10
26 | 16.6 nM | 0.00141 s⁻¹ | 85100 M⁻¹ s⁻¹ | B11

These binders were tested against T1, 6×His tagged C57BL/6 mouse SIRPα ECD … (assay: SPR (Biacore), antibody captured).
Protocol: as §2

Row | binding result | Kd | koff | kon | Binder
27 | no binding |  |  |  | B4
28 | no binding |  |  |  | B5
29 | no binding |  |  |  | B6
30 | no binding |  |  |  | B8
31 | no binding |  |  |  | B9
32 | no binding |  |  |  | B12
33 |  | 5.27 µM | 0.0247 s⁻¹ | 4690 M⁻¹ s⁻¹ | B10
34 | no binding |  |  |  | B11
